Assay results as given in patent US20250388688A1 (ETHYREAL BIO, published 2025).

Key:
[1] = target: T1, soluble TSHR protein (ELISA coat) (human, UniProt P16473 22-260, limits assumed); experiment: ELISA, plate coated with soluble TSHR, antibody at 300 nM, anti-human IgG Fc-HRP;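 note: TSHR coated at 2 µg/ml, bound antibody revealed by goat anti-human IgG Fc HRP, color developed with TMB and stopped with H2SO4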
Experimental: (§1) Select TSHR antibody variants were tested for their ability to bind TSHR in an ELISA. Briefly, soluble TSHR protein was coated onto a plate at 2 μg/ml in phosphate buffered saline (PBS). The plate was washed with PBS and blocked with 4% skim milk in PBS.
(§2) Following wash steps with 1×PBS-Tween 0.05%, bound human IgG was detected with peroxidase conjugated goat anti-human IgG (Fc specific)-HRP at 1:5000 dilution and the ELISA was developed with TMB reagent followed by H2SO4.

[2] = target: T1, soluble TSHR protein (ELISA coat); experiment: ELISA, plate coated with soluble TSHR, antibody at 100 nM, anti-human IgG Fc-HRP;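 note: binding of antibody variants to soluble TSHR coated at 2 µg/ml, with colour developed using TMB substrate and stopped with H2SO4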
Experimental: as §1, §2

[3] = target: T1, soluble TSHR protein (ELISA coat); experiment: ELISA, plate coated with soluble TSHR, antibody at 33.3 nM, anti-human IgG Fc-HRP;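 note: binding of antibody variants to plate-bound soluble TSHR (coated at 2 µg/ml), with bound human IgG detected by HRP conjugate and colour developed using TMB substrate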
Experimental: as §1, §2

[4] = target: T2, Soluble TSHR (22-260) protein (human, UniProt P16473 22-260); experiment: SPR (Biacore T200, 25 C), antibody captured on anti-human Fc, soluble TSHR (22-260) as analyte, 1:1 fit;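 note: antibodies captured at 0.1 ug/mL on a CM5 sensor chip bearing anti-human Fc, with HBS-EP+ running buffer at pH 7.4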
T2 construct: range 22-260
Experimental: Measurements were taken on a Biacore T200 at 25 C using a CM5 chip coated with anti-human Fc. Test antibodies were captured at 0.1 ug/mL in HBS-EP+ (10 mM HEPES pH7.4, 150 mM NaCl, 3 mM EDTA, 0.05% Tween 20) assay buffer. […] A 1:1 binding kinetics fit was used to calculate kinetic parameters.

Row | ELISA (OD 450) at 300 nM [1] [OD 450] | ELISA (OD 450) at 100 nM [2] [OD 450] | ELISA (OD 450) at 33.3 nM [3] [OD 450] | Kd [4] [nM] | koff [4] [s⁻¹] | kon [4] [M⁻¹ s⁻¹] | Binder
1 | 0.461 | 0.43 | 0.406 |  |  |  | parental TSHR-binding antibody (antibody, V domains shown, it has a human Fc (captured on anti-human Fc, detected with anti-human IgG Fc); also called parental antibody; parental anti-TSHR antibody) VH: EVQLVQSGAEVKKPGQSLKISCKASGYSLTDNWIGWVRQKPGKGLEWMGIIYPGDSDTRYSPSFQGQVTISADKSINTAYLQWSSLKASDTAIYYCVGLDWNYNPLRYWGPGTLVTVSS VL: QSVLTQPPSVSAAPGQKVTISCSGSSSDIGSNYVSWYQQFPGTAPKLLIYDNNKRPSAIPDRFSGSKSGTSATLGITGLQTGDEADYYCGTWDSRLGIAVFGGGTQLTVL
2 | 0.641 | 0.506 | 0.442 | 1.7 | 0.000273 | 161000 | TSHB-1 (antibody, V domains shown) VH: EVQLVQSGAEVKKPGESLKISCKASGYSLTDNWIGWVRQKPGKGLEWMGIIYPGDSDTRYSPSFQGQVTISADKSISTAYLQWSSLKASDTAIYYCVGLDWNYNPLRYWGQGTLVTVSS VL: QSVLTQPPSVSAAPGQKVTISCSGSSSDIGSNYVSWYQQFPGTAPKLLIYDNNKRPSAIPDRFSGSKSGTSATLGITGLQTGDEADYYCGTWDSRLGIAVFGGGTQLTVL
3 | 0.467 | 0.407 | 0.351 | 3.01 | 0.000533 | 177000 | TSHB-3 (antibody, V domains shown) VH: EVQLVQSGAEVKKPGESLKISCKASGYSLTDNWIGWVRQKPGKGLEWMGIIYPGDSDTRYSPSFQGQVTISADKSISTAYLQWSSLKASDTAIYYCVGLEWNYNPLRYWGQGTLVTVSS VL: QSVLTQPPSVSAAPGQKVTISCSGSSSDIGSNYVSWYQQFPGTAPKLLIYDNNKRPSAIPDRFSGSKSGTSATLGITGLQTGDEADYYCGTWDSRLGIAVFGGGTQLTVL
4 | 0.542 | 0.453 | 0.374 | 2.41 | 0.000362 | 150000 | TSHB-4 (antibody, V domains shown) VH: EVQLVQSGAEVKKPGESLKISCKASGYELTDNWIGWVRQKPGKGLEWMGIIYPGDSDTRYSPSFQGQVTISADKSISTAYLQWSSLKASDTAIYYCVGLDWNYNPLRYWGQGTLVTVSS VL: QSVLTQPPSVSAAPGQKVTISCSGSSSDIGSNYVSWYQQFPGTAPKLLIYDNNKRPSAIPDRFSGSKSGTSATLGITGLQTGDEADYYCGTWDSRLGIAVFGGGTQLTVL
5 | 0.578 | 0.498 | 0.414 | 2.82 | 0.00044 | 156000 | TSHB-5 (antibody, V domains shown) VH: EVQLVQSGAEVKKPGESLKISCKASGYQLTDNWIGWVRQKPGKGLEWMGIIYPGDSDTRYSPSFQGQVTISADKSISTAYLQWSSLKASDTAIYYCVGLDWNYNPLRYWGQGTLVTVSS VL: QSVLTQPPSVSAAPGQKVTISCSGSSSDIGSNYVSWYQQFPGTAPKLLIYDNNKRPSAIPDRFSGSKSGTSATLGITGLQTGDEADYYCGTWDSRLGIAVFGGGTQLTVL
6 | 0.548 | 0.493 | 0.45 | 3.73 | 0.000532 | 142000 | TSHB-6 (antibody, V domains shown) VH: EVQLVQSGAEVKKPGESLKISCKASGYSLNDNWIGWVRQKPGKGLEWMGIIYPGDSDTRYSPSFQGQVTISADKSISTAYLQWSSLKASDTAIYYCVGLDWNYNPLRYWGQGTLVTVSS VL: QSVLTQPPSVSAAPGQKVTISCSGSSSDIGSNYVSWYQQFPGTAPKLLIYDNNKRPSAIPDRFSGSKSGTSATLGITGLQTGDEADYYCGTWDSRLGIAVFGGGTQLTVL
7 | 0.555 | 0.491 | 0.443 | 4.11 | 0.000477 | 116000 | TSHB-7 (antibody, V domains shown) VH: EVQLVQSGAEVKKPGESLKISCKASGYSLKDNWIGWVRQKPGKGLEWMGIIYPGDSDTRYSPSFQGQVTISADKSISTAYLQWSSLKASDTAIYYCVGLDWNYNPLRYWGQGTLVTVSS VL: QSVLTQPPSVSAAPGQKVTISCSGSSSDIGSNYVSWYQQFPGTAPKLLIYDNNKRPSAIPDRFSGSKSGTSATLGITGLQTGDEADYYCGTWDSRLGIAVFGGGTQLTVL
8 | 0.586 | 0.551 | 0.471 | 2.25 | 0.000344 | 153000 | TSHB-8 (antibody, V domains shown) VH: EVQLVQSGAEVKKPGESLKISCKASGYSLTDNWIGWVRQKPGKGLEWMGIIYPGDSDTRYSPSFQGQVTISADKSISTAYLQWSSLKASDTAMYYCVGLDWNYNPLRYWGQGTLVTVSS VL: QSVLTQPPSVSAAPGQKVTISCSGSSSDIGSNYVSWYQQFPGTAPKLLIYDNNKRPSAIPDRFSGSKSGTSATLGITGLQTGDEADYYCGTWDSRLGIAVFGGGTQLTVL
9 | 0.478 | 0.452 | 0.355 | 6.53 | 0.000676 | 104000 | TSHB-9 (antibody, V domains shown) VH: EVQLVQSGAEVKKPGESLKISCKASGYSLTDNWTGWVRQKPGKGLEWMGIIYPGDSDTRYSPSFQGQVTISADKSISTAYLQWSSLKASDTAIYYCVGLDWNYNPLRYWGQGTLVTVSS VL: QSVLTQPPSVSAAPGQKVTISCSGSSSDIGSNYVSWYQQFPGTAPKLLIYDNNKRPSAIPDRFSGSKSGTSATLGITGLQTGDEADYYCGTWDSRLGIAVFGGGTQLTVL
10 | 0.557 | 0.496 | 0.44 | 2.94 | 0.000338 | 115000 | TSHB-10 (antibody, V domains shown) VH: EVQLVQSGAEVKKPGESLKISCKASGYSLTDNWIGWVRQKPGKGLEWMGIIYPGDSDTRYSPSFKGQVTISADKSISTAYLQWSSLKASDTAIYYCVGLDWNYNPLRYWGQGTLVTVSS VL: QSVLTQPPSVSAAPGQKVTISCSGSSSDIGSNYVSWYQQFPGTAPKLLIYDNNKRPSAIPDRFSGSKSGTSATLGITGLQTGDEADYYCGTWDSRLGIAVFGGGTQLTVL
11 | 0.289 | 0.22 | 0.159 | 53.3 | 0.000643 | 12100 | TSHB-11 (antibody, V domains shown) VH: EVQLVQSGAEVKKPGESLKISCKASGYSLTDNWIGWVRQKPGKGLEWMGIIYPGDSDTRYSPSFQGQVTISADKSISTAYLQWSSLKASDTAIYYCVGTDWNYNPLRYWGQGTLVTVSS VL: QSVLTQPPSVSAAPGQKVTISCSGSSSDIGSNYVSWYQQFPGTAPKLLIYDNNKRPSAIPDRFSGSKSGTSATLGITGLQTGDEADYYCGTWDSRLGIAVFGGGTQLTVL
12 | 0.561 | 0.495 | 0.459 |  |  |  | TSHB-13 (antibody, V domains shown) VH: EVQLVQSGAEVKKPGQSLKISCKASGYSLTDNWIGWVRQKPGKGLEWMGIIYPGDSDTRYSPSFQGQVTISADKSINTAYLQWSSLKASDTAIYYCVGLDWNYNPLRYWGPGTLVTVSS VL: QSVLTQPPSVSAAPGQKVTISCSGSSSDIGSNYVSWYQQLPGTAPKLLIYDNNKRPSGIPDRFSGSKSGTSATLGITGLQTGDEADYYCGTWDSRLGIAVFGGGTQLTVL
13 | 0.572 | 0.522 | 0.477 | 2.52 | 0.000352 | 140000 | TSHB-14 (antibody, V domains shown) VH: EVQLVQSGAEVKKPGQSLKISCKASGYSLTDNWIGWVRQKPGKGLEWMGIIYPGDSDTRYSPSFQGQVTISADKSINTAYLQWSSLKASDTAIYYCVGLDWNYNPLRYWGPGTLVTVSS VL: QSVLTQPPSVSAAPGQKVTISCSGSSSDIGSNYVSWYQQLPGTAPKLLIYDNNKRPSGIPDRFSGSKSGTSATLGITGLQTGDEADYYCGTWDSRWGIAVFGGGTQLTVL
14 | 0.53 | 0.493 | 0.447 |  |  |  | TSHB-22 (antibody, V domains shown) VH: EVQLVQSGAEVKKPGQSLKISCKASGYSLTDNWIGWVRQKPGKGLEWMGIIYPGDSDTRYSPSFQGQVTISADKSINTAYLQWSSLKASDTAIYYCVGLDWNYNPLRYWGPGTLVTVSS VL: QSVLTQPPSVSGAPGQRVTISCSGSSSDIGSNYVSWYQQLPGTAPKLLIYDNNKRPSGVPDRFSGSKSGTSASLAITGLQAEDEADYYCGTWDSRLGIAVFGGGTKLTVL
15 | 0.52 | 0.475 | 0.402 |  |  |  | TSHB-12 (antibody, V domains shown) VH: EVQLVQSGAEVKKPGASVKVSCKASGYSLTDNWIGWVRQAPGQGLEWMGIIYPGDSDTRYAQKFQGRVTMTADKSTSTVYMELSSLRSEDTAVYYCVGLDWNYNPLRYWGQGTLVTVSS VL: QSVLTQPPSVSAAPGQKVTISCSGSSSDIGSNYVSWYQQFPGTAPKLLIYDNNKRPSAIPDRFSGSKSGTSATLGITGLQTGDEADYYCGTWDSRLGIAVFGGGTQLTVL
16 | 0.367 | 0.409 | 0.38 |  |  |  | TSHB-25 (antibody, V domains shown) VH: EVQLVQSGAEVKKPGASVKVSCKASGYSLTDNWIGWVRQAPGQGLEWMGIIYPGDSDTRYAQKFQGRVTMTADKSTSTVYMELSSLRSEDTAVYYCVGLDWNYNPLRYWGQGTLVTVSS VL: QSVLTQPPSVSGAPGQRVTISCSGSSSDIGSNYVSWYQQLPGTAPKLLIYDNNKRPSGVPDRFSGSKSGTSASLAITGLQAEDEADYYCGTWDSRLGIAVFGGGTKLTVL
